According to US20220313831A1 (BAYLOR COLLEGE OF MEDICINE, published 2022):

Target: T1, CD6 (basal, native) on non-transduced T cells (human, UniProt P30203 18-668)
T1 construct: whole, on cells; also called basal CD6 expression on normal T cells
T1 sequence (looked up): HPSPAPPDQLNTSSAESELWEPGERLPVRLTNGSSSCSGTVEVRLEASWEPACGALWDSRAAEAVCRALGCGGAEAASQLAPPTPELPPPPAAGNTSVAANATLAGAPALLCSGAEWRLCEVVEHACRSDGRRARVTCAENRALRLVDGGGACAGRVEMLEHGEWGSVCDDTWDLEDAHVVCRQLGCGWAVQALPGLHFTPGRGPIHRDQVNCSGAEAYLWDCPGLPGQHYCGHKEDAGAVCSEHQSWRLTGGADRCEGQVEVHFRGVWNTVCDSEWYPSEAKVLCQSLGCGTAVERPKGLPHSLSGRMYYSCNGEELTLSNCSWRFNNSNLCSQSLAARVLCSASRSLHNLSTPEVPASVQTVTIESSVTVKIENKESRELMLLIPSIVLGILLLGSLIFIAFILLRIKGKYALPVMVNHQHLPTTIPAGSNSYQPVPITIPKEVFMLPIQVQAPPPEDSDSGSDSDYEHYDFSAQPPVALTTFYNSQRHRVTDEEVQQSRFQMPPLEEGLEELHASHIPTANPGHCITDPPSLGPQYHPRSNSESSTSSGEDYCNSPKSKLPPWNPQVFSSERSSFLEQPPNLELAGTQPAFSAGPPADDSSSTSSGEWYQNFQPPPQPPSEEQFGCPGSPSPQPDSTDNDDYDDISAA
Assay: flow cytometry; non-transduced T cells stained with ALCAM-Fc and anti-human IgG1 Fc FITC
Method: A) FACS analysis was used to confirm ALCAM specific binding to MBE CD6 D3 constructs on the surface of primary T cells. Cells were incubated with IgG1 Fc linked recombinant human ALCAM followed by an anti-human IgG1 Fc FITC conjugated Ab (filled black histogram). Staining of cells with anti-human IgG1 Fc FITC alone (open grey histogram), staining of non-transduced T cells (NT) (dotted open histogram) served as control for basal CD6 expression on normal T cells which bind natively to ALCAM.Fc. and percentage transduction is determined after staining of monomer, monomer+signaling domain, trimer, trimer+signaling domain, pentamer and pentamer+signaling domain (grey-filled histogram) (FIG. 6).

B1: IgG1 Fc linked recombinant human ALCAM (Fc fusion, UniProt Q13740 28-527, looked up)
chain: WYTVNSAYGDTIIIPCRLDVPQNLMFGKWKYEKPDGSPVFIAFRSSTKKSVQYDDVPEYKDRLNLSENYTLSISNARISDEKRFVCMLVTEDNVFEAPTIVKVFKQPSKPEIVSKALFLETEQLKKLGDCISEDSYPDGNITWYRNGKVLHPLEGAVVIIFKKEMDPVTQLYTMTSTLEYKTTKADIQMPFTCSVTYYGPSGQKTIHSEQAVFDIYYPTEQVTIQVLPPKNAIKEGDNITLKCLGNGNPPPEEFLFYLPGQPEGIRSSNTYTLTDVRRNATGDYKCSLIDKKSMIASTAITVHYLDLSLNPSGEVTRQIGDALPVSCTISASRNATVVWMKDNIRLRSSPSFSSLHYQDAGNYVCETALQEVEGLKKRESLTLIVEGKPQIKMTKKTDPSGLSKTIICHVEGFPKPAIQWTITGSGSVINQTEESPYINGRYYSKIIISPEENVTLTCTAENQLERTVNSLNVSAISIPEHDEADEISDENREKVNDQAK
notes: also called ALCAM-fc; ALCAM-Fc; not shown: IgG1 Fc (detected with anti-human IgG1 Fc antibody)
binding result: binds
